# Experimental data published in US6027877, “Use of immobilized mismatch binding protein for detection of mutations and polymorphisms, purification of amplified DNA samples and allele identification” (Gene Check, Inc.).
# T1: MutS (Escherichia coli, UniProt P23909 P23909:1-853)
# T1 sequence: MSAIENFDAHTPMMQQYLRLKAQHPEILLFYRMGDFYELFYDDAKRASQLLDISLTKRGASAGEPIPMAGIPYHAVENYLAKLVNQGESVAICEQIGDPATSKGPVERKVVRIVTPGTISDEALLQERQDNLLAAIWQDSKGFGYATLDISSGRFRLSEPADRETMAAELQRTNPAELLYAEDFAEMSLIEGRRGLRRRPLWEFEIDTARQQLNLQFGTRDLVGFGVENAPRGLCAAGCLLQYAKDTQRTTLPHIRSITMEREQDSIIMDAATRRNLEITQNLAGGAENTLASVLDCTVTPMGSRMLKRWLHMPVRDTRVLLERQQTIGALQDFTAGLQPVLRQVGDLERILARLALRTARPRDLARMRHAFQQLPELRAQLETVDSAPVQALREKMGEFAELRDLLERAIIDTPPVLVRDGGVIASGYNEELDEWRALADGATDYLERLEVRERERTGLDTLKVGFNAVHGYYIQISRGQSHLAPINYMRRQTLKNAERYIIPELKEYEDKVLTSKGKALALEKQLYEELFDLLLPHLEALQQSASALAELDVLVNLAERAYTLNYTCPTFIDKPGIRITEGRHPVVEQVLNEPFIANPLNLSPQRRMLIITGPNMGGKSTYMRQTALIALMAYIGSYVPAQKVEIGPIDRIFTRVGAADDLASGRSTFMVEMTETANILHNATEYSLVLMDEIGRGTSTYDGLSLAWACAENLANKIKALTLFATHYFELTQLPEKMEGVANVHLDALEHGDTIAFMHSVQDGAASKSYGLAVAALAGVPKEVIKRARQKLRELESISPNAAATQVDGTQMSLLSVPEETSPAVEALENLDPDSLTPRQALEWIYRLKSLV
# Key:
# MutS [1] = target: T1, MutS; assay: competition; competition clearly visible with 50 ng against 5 ng biotinylated mismatch 30-mer; settings: tags: adsorbed on nitrocellulose (0.45 um, Schleicher & Schuell); single G:T mismatch
# Experimental: (§1) Purified MBP, E. coli MutS, at a concentration of 0.5 μg/10 μl reaction buffer was spotted on the nitrocellulose paper in each well. The wells were incubated at room temperature, and the remaining liquid was pulled through with vacuum. Each well was washed twice with 100 μl reaction buffer by adding the solution to the well and then pouring it out. After the second wash, the remaining solution was pulled through the vacuum.
# (§2) Biotinylated oligonucleotides, in 20 μl reaction buffer containing 1% BSA, were added to each well. After 30 minutes at room temperature, remaining liquid was poured out. Each well was washed with 5×100 μl reaction buffer by adding the solution to the well and then pouring it out. After the fifth wash, the remaining solution was pulled through by vacuum.
# In competition studies, the DNA binding was as described above, except that a constant amount of biotinylated mismatch-containing oligonucleotide (5 ng) was mixed with varying amounts of unlabeled DNA, with or without a mismatch, and added to the wells.
# MutS [2] = target: T1, MutS; assay: no detectable binding even with 200 ng; same buffer, 5 mM MgCl2, room temperature; settings: tags: adsorbed on nitrocellulose (0.45 um, Schleicher & Schuell); perfect duplex
# Experimental: as §1, §2
# (§3) The presence of biotin was detected by its binding of Streptavidin. A 100 μl volume of Streptavidin-conjugated HRP (Pierce Chemicals) at a concentration of […] in reaction buffer +1% BSA was added to each well. After 2 hours at room temperature, the solution was poured out and each well washed with 5×100 μl reaction buffer by adding the solution and then pouring it out. After the fifth wash, the remaining solution was pulled through with vacuum.
# MutS [3] = target: T1, MutS; assay: dot blot with immobilized MutS, streptavidin-HRP ECL; as little as 0.2 ng detected; 20 mM Tris pH 7.6, 5 mM MgCl2, 1% BSA, room temperature; settings: tags: adsorbed on nitrocellulose (0.45 um, Schleicher & Schuell); single G:T mismatch
# Experimental: as §1, §2, §3
binder,measurement,setting,value
unlabeled beta-globin 30-mer G:T mismatch duplex (dsDNA) DNA 1: GCACCTGACTCCTGGGGAGAAGTCTGCCGT DNA 2: ACGGCAGACTTCTCCTCAGGAGTCAGGTGC,binding result,MutS [1],binds
beta-globin 30-mer fully matched duplex (dsDNA) DNA 1: GCACCTGACTCCTGGGGAGAAGTCTGCCGT DNA 2: ACGGCAGACTTCTCCCCAGGAGTCAGGTGC,binding result,MutS [2],no binding
beta-globin 30-mer G:T mismatch duplex (dsDNA) DNA 1: GCACCTGACTCCTGGGGAGAAGTCTGCCGT DNA 2: ACGGCAGACTTCTCCTCAGGAGTCAGGTGC,binding result,MutS [3],binds
